17 molecules from patent US20180230225A1 (LEGEND BIOTECH USA, published 2018) can be followed below.

Where a chain is given by its changes, count along the chain named.

Experiment [1] concerns the target T1, recombinant human BCMA protein having a C-terminal Fc tag (ACRO Biosystems, Cat No.: BC7-H5254) (human, UniProt Q02223 1-54).
T1 construct: Bought protein; Clones were also screened on CHO cells expressing human BCMA (CHO-BCMA); also called CD269; not shown: C-terminal Fc tag
T1 sequence (looked up): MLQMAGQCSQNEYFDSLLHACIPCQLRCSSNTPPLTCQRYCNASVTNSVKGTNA
Kind of experiment: phage ELISA: plate coated with recombinant human BCMA protein (Fc control protein in parallel) or CHO-BCMA cells; phage supernatant, HRP anti-M13, A450. How it is done:
Phage ELISA was performed to identify clones specific to the target antigens. Individual output phage clones were grown in 96-deep-well plate and rescued by M13KO7 helper phage overnight. To identify clones that bind to antigen proteins, 96-well ELISA microtiter plates were coated with recombinant human BCMA protein and Fc control protein respectively in coating buffer overnight at 4° C., and the plates were then blocked with blocking buffer. After blocking, approximately 50 μl per well of phage supernatant from the overnight cell culture was added to the plates for 1.5-hour incubation at 4° C. The plates were washed four times, and the HRP-conjugated anti-M13 monoclonal antibody was added to the plates for 45-minute incubation at 4° C. The plates were again washed five times and substrate solution was added to the wells for developing. Absorption at 450 nm was measured for each well.
To identify clones that bind CHO-BCMA cells, the CHO-BCMA cells were blocked with blocking buffer at room temperature for 1 hour. After blocking, approximately 20 μl per well of phage supernatant from the overnight cell culture was added to the cell solutions for 1-hour incubation at room temperature. After the cells were washed 4 times, the HRP-conjugated anti-M13 monoclonal antibody was added for 30-minute incubation at room temperature. The cells were washed five times and substrate solution was then added for developing. The absorption was measured at 450 nm.

Experiment [2] addresses T2, recombinant human CD38 protein having a C-terminal His tag (ACRO Biosystems, Cat No.: CD8-H5224) (human, UniProt P28907 43-300).
T2 construct: Bought protein; not shown: C-terminal His tag
T2 sequence (looked up): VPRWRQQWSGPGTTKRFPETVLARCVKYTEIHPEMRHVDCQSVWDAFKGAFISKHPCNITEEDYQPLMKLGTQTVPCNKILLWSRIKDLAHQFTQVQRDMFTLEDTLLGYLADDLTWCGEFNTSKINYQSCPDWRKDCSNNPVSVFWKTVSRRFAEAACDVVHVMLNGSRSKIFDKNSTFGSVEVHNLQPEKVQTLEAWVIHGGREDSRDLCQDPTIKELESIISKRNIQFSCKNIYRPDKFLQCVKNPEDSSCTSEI
The experiment is described as follows: phage ELISA on the recombinant antigen, by a process similar to the one described for BCMA.

B1: 269A37965 (VHH)
VHH: AVQLVESGGGLVQAGDSLRLSCTASGATLTNDHMAWFRQAPGKGREFVAAIDWSGRTTNYADPVEGRFTISRNNAKNTVYLEMNSLKLEDTAVYYCAVLRAWISYDNDYWGQGTQVTVSS
notes: Llama VHH from an immune phage library; also called anti-BCMA sdAb
Consider B1, for which the binding result in experiment [1] was “binds”.

B2: 38A37331 (VHH)
VHH: QVKLEESGGGLVQPGESLRLSCSASGSIFKVFRVFAMSWYRQGPGKQRELVASISSGETTTYADSVKGRFTISRDNAKNTAYLQMDSLKPEDTAVYYCNADHTFTGDFWGQGTQVTVSS
notes: Llama VHH from an immune phage library; also called anti-CD38 sdAb
Regarding B2, the binding result in experiment [2] is given as “binds”.

B3: 269A37915 (VHH)
VHH: EVQLVESGGGLVQAGGSLRLSCAASGRTFSSIVMGWFRQAPGKEREFVGAIMWNDGITYLQDSVKGRFTIFRDNAKNTVYLQMNSLKLEDTAVYYCAASKGRYSEYEYWGQGTQVTVSS
notes: as for B1
In the case of B3, the binding result in experiment [1] is listed as “binds”.

B4: 269A37953 (VHH)
VHH: B3 VHH with L11M, G16D, A23V, A24Q, G26T, R27Y, F29V, S30N, I32D
notes: as for B1
For the molecule B4, the binding result in experiment [1] was “binds”.

B5: 38A37326 (VHH)
VHH: EVQLVESGGGLVQAGGSLRLSCAASGRTYAMGWYRQAPGKQRDLVATISGAGNTKYADSVKGRFTISRDNAKNTMYLQMNSLKPEDTAVYYCAAGKWFPAANEYWGQGTQVTVSS
notes: as for B2
B5: in experiment [2], the binding result is reported as “binds”.

B6: 38A37731 (VHH)
VHH: QVKLEESGGGLVQAGGSLRLSCVASGTIVSISTMGWYRQAPGKQRELVATITRRGRTNYTDSVKGRFTISRDNAKNTVYLQMNSLKPEDTAVYYCNAEVQLDIWASAYDYWGQGTQVTVAS
notes: as for B2
As for B6, in experiment [2], the binding result is listed as “binds”.

B7: 269A37948 (VHH)
VHH: AVQLVESGGGLVQAGDSLRLTCTASGRAFSTYFMAWFRQAPGKEREFVAGIAWSGGSTAYADSVKGRFTISRDNAKNTVYLQMNSLKSEDTAVYYCASRGIEVEEFGAWGQGTQVTVSS
notes: as for B1
On to B7, for which, in experiment [1], the binding result was “binds”.

B8: 38A37340 (VHH)
VHH: DVQLVESGGGLVQAGDSLRLSCAASGRTFSSYAMAWFRQAPGKEREIVSSISTSGGITDYADSVKGRFTISKDSAKMNTVYLQMNSLEPEDTAVYYCAARTWYLRTSLQYDYWGQGTQVTVSS
notes: as for B2
As to B8, the binding result in experiment [2] is “binds”.

B9: 38A37719 (VHH)
VHH: QVKLEESGGGSVQTGGSLRLSCAASASIFTRLPMGWYRQAPGKQRELVVGIVPSGRINYADSVKGRFTISRDNAKNTVYLQMNSLRPEDTAVYYCRADTFPLPTWGQGTQVTVSS
notes: as for B2
With B9, the binding result in experiment [2] was “binds”.

B10: 38A37333 (VHH)
VHH: DVQLVESGGGLVQPGGSLRLSCVASGLTFSSYPMMWVRQAPGKGLEWVSRISDSGGYTNYDDSVKGRFTISRDNAKNTLYLQMNSLTPEDTAVYYCRILGLPTTGQGTQVTVSS
notes: as for B2
As for B10, the binding result in experiment [2] is “binds”.

B11: 269A37936 (VHH)
VHH: EVQLVESGGGVVQAGGSLTVSCTASGFTFDRAVIVWFRQAPGKGREGVSFIKPSDGTIYYIDSLKGRFTISSDIAKNTVYLQMKSLESEDSAVYYCAASPEDWYTDWIDWSIYRWQHWGQGTQVTVSS
notes: as for B1
Regarding B11, in experiment [1], the binding result was “binds”.

B12: 38A37334 (VHH)
VHH: EVQLVESGGGLVQAGGSLRLSCAASGLTFSSYIMGWFRQAPGEERELVAEISSGGMTSYADSVKGRFTISRDNAKKTGYLQMNSLKPEDTAVYYCAAPERGSIWYSRYEYKYWGQGTQVTVSS
notes: as for B2
As to B12, the binding result in experiment [2] was “binds”.

B13: 38A37330 (VHH)
VHH: QVQLVESGGGLVQAGDSLRLSCAASGRAYATMAWFRQAPGKEREFVAHLRVSGDTTYYTDSVKGRFTISRDNAKNTAYLQMNMLKPEDTAVYYCAAGPYGILAAARVSNPGNYDYWGQGTQVTVSS
notes: as for B2
For B13, in experiment [2], the binding result is given as “binds”.

B14: 269A37972 (VHH)
VHH: QVQLVESGGGLVQAGGSLRLSCAASGGTLSKNTVAWFRQAPGKERGFVASITWDGRTTYYADSVKGRFTISRDNAKNTVYLQMNSLKPEDTAVYVCADLGKWPAGPADYWGQGTQVTVSS
notes: as for B1
With B14, the binding result in experiment [1] was “binds”.

B15: 38A37699 (VHH)
VHH: QVQLVESGGGLVQAGGSLRLSCAASGRIFSINAMGWYRQAPGKQRELVAAISTAGSTNYGDSVKGRFTISRDNAKNTVYLQMNSLKPEDTAVYYCNLNFPPYVYWGQGTQVTVSS
notes: as for B2
With B15, in experiment [2], the binding result is listed as “binds”.

B16: 269A37355 (VHH)
VHH: AVQLVDSGGGLVQPGGSLRLSCVASGGIFVINAMGWYRQAPGKQRELVASIRGLGRTNYDDSVKGRFTISRDNANNTVYLQMNSLEPEDTAVYYCTVYVTLLGGVNRDYWGQGTQVTVSS
notes: as for B1
B16: in experiment [1], the binding result is “binds”.

B17: 38A37336 (VHH)
VHH: EVQLVESGGGLVQPGGSLRLSCAASGFTFSSNWMYWVRQAPGKGLEWVATISTDGRGTYYKDSVKGRFTVSRDNAMSTLLLQMNNLKSEDTAVYYCAKEPRVLMAYLRNLGDFGSWGQGTQVTVSS
notes: as for B2
B17: the binding result in experiment [2] is “binds”.
